Data: the RNAGym collection of RNA variant scans (doi:10.7554/elife.80360)

B1: Hairpin Ribozyme (parent)
chain: GUCCUCUUUCACGUGCGCGUGAAAGAGAGAAGUGAACCAGAGAAACACACGUUGUGGUAUAUUACCUGGUA

Variants of: B1
Assay: self-cleavage, relative activity (ratio to wild type); higher = more cleavage; co-transcriptional

Going from GUCCUCUUUCACGUGCGCGUGAAAGAGAGGAGUGAACCAGAGAAACACACGUUGUGGUAUUUUACCUGGUA [A30G A61U] to GUCCUCUUUCACGUGCGCGUGAAAGAGAGCAGUGAACCAGAGAAACACACUUUGUGGUAUAUUACCUGGUA [A30C G51U], the self-cleavage rises from 0.153 to 0.178.

Compared with GUCCUCUUUCACGUGCGCGUGAAAGAGAGUAGUGAACCAGAGAACCACACGUUGUGGUAUAUUACCUGGUA [A30U A45C], GUCCUCUUUCACGUGCGCGUGAAAGAGAGUAGUGAACCAGAGUAACACACGUUGUGGUAUAUUACCUGGUA [A30U A43U] is higher in self-cleavage: 0.0664 for the first, 0.0952 for the second.

Compared with GUCCUCUUUCACGUGCGCGUGAAAGAGAGUAGUGAACCAGAGCAACACACGUUGUGGUAUAUUACCUGGUA [A30U A43C], GUCCUCUUUCACGUGCGCGUGAAAGAGAGUAGUGGACCAGAGAAACACACGUUGUGGUAUAUUACCUGGUA [A30U A35G] is higher in self-cleavage: 0.117 for the first, 0.217 for the second.

First: GUCCUCUUUCACGUGCGCGUGAAAGAGAGGAGUGAACCAGAGAAACACACGUUGUGGUAUAUUACCUAGUA [A30G G68A]
Second: GUCCUCUUUCACGUGCGCGUGAAAGAGAGGAGUGAACCAGAGAAACACACGUUGUGGUAUAUUACCUCGUA [A30G G68C]
The self-cleavage of the first is lower: 0.0362 for the first, 0.132 for the second.

Compared with GUCCUCUUUCACGUGCGCGUGAAAGAGAGCAGUGAACCAGAGAAACACACGUUGUGGUAUAAUACCUGGUA [A30C U62A], GUCCUCUUUCACGUGCGCGUGAAAGAGAGGAGUGAACCAGAGAAACACACGUAGUGGUAUAUUACCUGGUA [A30G U53A] is higher in self-cleavage: 0 for the first, 0.0621 for the second.

First: GUCCUCUUUCACGUGCGCGUGAAAGAGAGGAGUGAACCAGAGAAACACACGUCGUGGUAUAUUACCUGGUA [A30G U53C]
Second: GUCCUCUUUCACGUGCGCGUGAAAGAGAGGAGUCAACCAGAGAAACACACGUUGUGGUAUAUUACCUGGUA [A30G G34C]
The self-cleavage of the first is lower: 0.288 for the first, 0.79 for the second.

Compared with GUCCUCUUUCACGUGCGCGUGAAAGAGAGGAGUAAACCAGAGAAACACACGUUGUGGUAUAUUACCUGGUA [A30G G34A], GUCCUCUUUCACGUGCGCGUGAAAGAGAGUAGUGAACCAGAGAAACACACGUUGUGGUAUGUUACCUGGUA [A30U A61G] is lower in self-cleavage: 0.164 for the first, 0.0939 for the second.

Compared with GUCCUCUUUCACGUGCGCGUGAAAGAGAGCAGUGAACCAGAGAAACACACGUUGGGGUAUAUUACCUGGUA [A30C U55G], GUCCUCUUUCACGUGCGCGUGAAAGAGAGCAGUGAACCAGAGAAACACACGUUGUGGUAUAUUACCUGGCA [A30C U70C] is higher in self-cleavage: 0.0965 for the first, 0.127 for the second.

Going from GUCCUCUUUCACGUGCGCGUGAAAGAGAGCAGUGAACCAGAGAAACACACGUUGUGGUAUAUUACCUGGAA [A30C U70A] to GUCCUCUUUCACGUGCGCGUGAAAGAGAGGAGUGAACCAGAGGAACACACGUUGUGGUAUAUUACCUGGUA [A30G A43G], the self-cleavage falls from 0.159 to 0.0977.

Compared with GUCCUCUUUCACGUGCGCGUGAAAGAGAGCAGUGAACCAGAGAAACACACGUUGUGGUAUAUUACCUAGUA [A30C G68A], GUCCUCUUUCACGUGCGCGUGAAAGAGAGGAGUGAACCAGAGAAACAAACGUUGUGGUAUAUUACCUGGUA [A30G C48A] is lower in self-cleavage: 0.0646 for the first, 0.0555 for the second.

Going from GUCCUCUUUCACGUGCGCGUGAAAGAGAGGAGUGAACCAGAGAAACAUACGUUGUGGUAUAUUACCUGGUA [A30G C48U] to GUCCUCUUUCACGUGCGCGUGAAAGAGAGGAGUGAACCAGAGAAACAGACGUUGUGGUAUAUUACCUGGUA [A30G C48G], the self-cleavage falls from 0.19 to 0.0877.

Going from GUCCUCUUUCACGUGCGCGUGAAAGAGAGGAGUGAGCCAGAGAAACACACGUUGUGGUAUAUUACCUGGUA [A30G A36G] to GUCCUCUUUCACGUGCGCGUGAAAGAGAGGAGUGACCCAGAGAAACACACGUUGUGGUAUAUUACCUGGUA [A30G A36C], the self-cleavage falls from 0.0448 to 0.

First: GUCCUCUUUCACGUGCGCGUGAAAGAGAGCAGUGAACCAGAGAAACACACGUUGUGGUAUAUUACCCGGUA [A30C U67C]
Second: GUCCUCUUUCACGUGCGCGUGAAAGAGAGCAGUGAACCAGAGAAACACACGUUGUGGUAUAUUACCGGGUA [A30C U67G]
The self-cleavage of the first is lower: 0.0679 for the first, 0.109 for the second.

Going from GUCCUCUUUCACGUGCGCGUGAAAGAGAGCAGUGAACCAGAGAAACACACGUUGUGGUAUAUUACCAGGUA [A30C U67A] to GUCCUCUUUCACGUGCGCGUGAAAGAGAGGAGUGAACCAGAGAAACACACGUUGUGGUAUAAUACCUGGUA [A30G U62A], the self-cleavage falls from 0.0972 to 0.0629.

Going from GUCCUCUUUCACGUGCGCGUGAAAGAGAGGAGUGAACCAGAGAAACACACAUUGUGGUAUAUUACCUGGUA [A30G G51A] to GUCCUCUUUCACGUGCGCGUGAAAGAGAGCAGUGAACCAGAGAAACACACGUUGUCGUAUAUUACCUGGUA [A30C G56C], the self-cleavage falls from 0.254 to 0.0453.

Going from GUCCUCUUUCACGUGCGCGUGAAAGAGAGCAGUGAACCAGAGAAACACACGUUGUAGUAUAUUACCUGGUA [A30C G56A] to GUCCUCUUUCACGUGCGCGUGAAAGAGAGUAGUGAACCAGAGAAACUCACGUUGUGGUAUAUUACCUGGUA [A30U A47U], the self-cleavage falls from 0.194 to 0.0724.

First: GUCCUCUUUCACGUGCGCGUGAAAGAGAGGAGUGAACGAGAGAAACACACGUUGUGGUAUAUUACCUGGUA [A30G C38G]
Second: GUCCUCUUUCACGUGCGCGUGAAAGAGAGGAGUGAACAAGAGAAACACACGUUGUGGUAUAUUACCUGGUA [A30G C38A]
The self-cleavage of the first is higher: 0.149 for the first, 0.0519 for the second.

Compared with GUCCUCUUUCACGUGCGCGUGAAAGAGAGGACUGAACCAGAGAAACACACGUUGUGGUAUAUUACCUGGUA [A30G G32C], GUCCUCUUUCACGUGCGCGUGAAAGAGAGGAUUGAACCAGAGAAACACACGUUGUGGUAUAUUACCUGGUA [A30G G32U] is higher in self-cleavage: 0.106 for the first, 0.124 for the second.

Compared with GUCCUCUUUCACGUGCGCGUGAAAGAGAGGAAUGAACCAGAGAAACACACGUUGUGGUAUAUUACCUGGUA [A30G G32A], GUCCUCUUUCACGUGCGCGUGAAAGAGAGGAGGGAACCAGAGAAACACACGUUGUGGUAUAUUACCUGGUA [A30G U33G] is lower in self-cleavage: 0.137 for the first, 0.0952 for the second.
